Results from the supplement of paper PMC10567573.

B1: ADAMTS4 (parent)
chain: HVDPEEPWSPCSARFITDFLDNGY

Variants of: B1
Assay: protein stability index of a GFP-peptide fusion (GPS, HEK-293T) (PSI 1-6); higher = more stable
Conditions: c terminus: a fixed tail appended
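Note: lentivirally expressed fusions sorted by FACS into six bins by GFP to DsRed ratio, PSI derived from sequencing read proportions per bin multiplied by bin number.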

Variant	protein stability index
HVDPEEPWSGCSARFITDFLDNGY	1.88
HVMPEEPWSPCSARFITDFLDNGY	1.89
HVLPEEPWSPCSARFITDFLDNGY	1.78
HVQPEEPWSPCSARFITDFLDNGY	2.49
HVIPEEPWSPCSARFITDFLDNGY	1.55
HVKPEEPWSPCSARFITDFLDNGY	1.76
HVVPEEPWSPCSARFITDFLDNGY	1.77
HVPPEEPWSPCSARFITDFLDNGY	1.85
HVEPEEPWSPCSARFITDFLDNGY	1.75
HVAPEEPWSPCSARFITDFLDNGY	1.69
HVRPEEPWSPCSARFITDFLDNGY	1.8
HVNPEEPWSPCSARFITDFLDNGY	2.21
HVHPEEPWSPCSARFITDFLDNGY	1.98
HVTPEEPWSPCSARFITDFLDNGY	2.04
HVWPEEPWSPCSARFITDFLDNGY	1.34
HVFPEEPWSPCSARFITDFLDNGY	1.79
HVSPEEPWSPCSARFITDFLDNGY	2.48
HVCPEEPWSPCSARFITDFLDNGY	2.63
HVYPEEPWSPCSARFITDFLDNGY	1.11
HVGPEEPWSPCSARFITDFLDNGY	2.78
HDDPEEPWSPCSARFITDFLDNGY	3
HGDPEEPWSPCSARFITDFLDNGY	2.9
HRDPEEPWSPCSARFITDFLDNGY	2.4
HQDPEEPWSPCSARFITDFLDNGY	2.16

Variant	protein stability index
HNDPEEPWSPCSARFITDFLDNGY	2.48
HWDPEEPWSPCSARFITDFLDNGY	2.08
HKDPEEPWSPCSARFITDFLDNGY	2.62
HSDPEEPWSPCSARFITDFLDNGY	2.55
HCDPEEPWSPCSARFITDFLDNGY	2.09
HLDPEEPWSPCSARFITDFLDNGY	2.23
HFDPEEPWSPCSARFITDFLDNGY	2.14
HHDPEEPWSPCSARFITDFLDNGY	2.37
HEDPEEPWSPCSARFITDFLDNGY	3.19
HMDPEEPWSPCSARFITDFLDNGY	2.75
HIDPEEPWSPCSARFITDFLDNGY	2.56
HYDPEEPWSPCSARFITDFLDNGY	2.05
HTDPEEPWSPCSARFITDFLDNGY	2.2
HPDPEEPWSPCSARFITDFLDNGY	2.23
HADPEEPWSPCSARFITDFLDNGY	2.36
HVDPEEPKSPCSARFITDFLDNGY	3.48
HVDPEEPVSPCSARFITDFLDNGY	3.5
HVDPEEPDSPCSARFITDFLDNGY	3.66
HVDPEEPMSPCSARFITDFLDNGY	2.82
HVDPEEPTSPCSARFITDFLDNGY	3.54
HVDPEEPLSPCSARFITDFLDNGY	3.24
HVDPEEPISPCSARFITDFLDNGY	3.34
HVDPEEPQSPCSARFITDFLDNGY	3.37
HVDPEEPCSPCSARFITDFLDNGY	3.39

Variant	protein stability index
HVDPEEPESPCSARFITDFLDNGY	3.92
HVDPEEPRSPCSARFITDFLDNGY	3.36
HVDPEEPYSPCSARFITDFLDNGY	2.89
HVDPEEPNSPCSARFITDFLDNGY	2.95
HVDPEEPGSPCSARFITDFLDNGY	3.2
HVDPEEPASPCSARFITDFLDNGY	3.47
HVDPEEPHSPCSARFITDFLDNGY	3.44
HVDPEEPPSPCSARFITDFLDNGY	3.49
HVDPEEPFSPCSARFITDFLDNGY	2.29
HVDPEEPSSPCSARFITDFLDNGY	3.27
HVDPVEPWSPCSARFITDFLDNGY	1.92
HVDPCEPWSPCSARFITDFLDNGY	2.19
HVDPHEPWSPCSARFITDFLDNGY	1.66
HVDPYEPWSPCSARFITDFLDNGY	3.13
HVDPPEPWSPCSARFITDFLDNGY	2.29
HVDPTEPWSPCSARFITDFLDNGY	2.96
HVDPIEPWSPCSARFITDFLDNGY	2.32
HVDPNEPWSPCSARFITDFLDNGY	1.96
HVDPKEPWSPCSARFITDFLDNGY	2.58
HVDPREPWSPCSARFITDFLDNGY	2.77
HVDPFEPWSPCSARFITDFLDNGY	2.72
HVDPWEPWSPCSARFITDFLDNGY	2.79
HVDPQEPWSPCSARFITDFLDNGY	2.43
HVDPAEPWSPCSARFITDFLDNGY	2.37

Variant	protein stability index
HVDPLEPWSPCSARFITDFLDNGY	2.31
HVDPSEPWSPCSARFITDFLDNGY	2.35
HVDPDEPWSPCSARFITDFLDNGY	1.9
HVDPGEPWSPCSARFITDFLDNGY	2.13
HVDPMEPWSPCSARFITDFLDNGY	2.17
YVDPEEPWSPCSARFITDFLDNGY	2.29
HVDPEEPWSPASARFITDFLDNGY	2.41
HVDPEEPWSPESARFITDFLDNGY	2
HVDPEEPWSPPSARFITDFLDNGY	2
HVDPEEPWSPRSARFITDFLDNGY	1.7
HVDPEEPWSPNSARFITDFLDNGY	1.9
HVDPEEPWSPISARFITDFLDNGY	1.79
HVDPEEPWSPLSARFITDFLDNGY	1.69
HVDPEEPWSPTSARFITDFLDNGY	2.15
HVDPEEPWSPQSARFITDFLDNGY	2.18
HVDPEEPWSPMSARFITDFLDNGY	1.6
HVDPEEPWSPSSARFITDFLDNGY	2.19
HVDPEEPWSPGSARFITDFLDNGY	2.05
HVDPEEPWSPKSARFITDFLDNGY	2.21
HVDPEEPWSPFSARFITDFLDNGY	2.1
HVDPEEPWSPDSARFITDFLDNGY	2.05
HVDPEEPWSPHSARFITDFLDNGY	2.06
